# According to patent US20200207859A1 (priority 2017, published 2020):
# B1: Conjugate C (anti-CD74 IgG-val-cit-PAB-hemiasterlin conjugate) (antibody, V domains shown)
# VH: QVQLVESGGGVVQPGRSLRLSCAASGFNFSDYGMHWVRQAPGKGLEWVAVIWYDGSISYYADSVKGRFTISRDNSKNTLYLQMNSLRAEDTAVYYCARGGTVEHGAVYGTDVWGQGTTVTVSS
# VL: DIQMTQSPSSVSASVGDRVTITCRASQGIGSWLAWYQQKPGKAPKLLIYAADRLQSGVPSRFSGSGSGTDFTLTISSLQPEDFATYYCQQYHTYPLTFGGGTKVEIK
# modifications: here or on the partner: modified amino acid residue 30 (pAMF) according to Example 2, position not stated for this conjugate, linked to val-cit-PAB-hemiasterlin
# B2: Conjugate E (anti-CD74 IgG-PEG4-MMAF conjugate) (antibody, V domains shown)
# VH: B1 VH
# VL: B1 VL
# modifications: here or on the partner: modified amino acid residue 30 (pAMF) according to Example 2, position not stated for this conjugate, linked to PEG4-MMAF
# B3: Conjugate F (anti-CD74 IgG-PEG4-MMAE conjugate) (antibody, V domains shown)
# VH: B1 VH
# VL: B1 VL
# modifications: here or on the partner: modified amino acid residue 30 (pAMF) according to Example 2, position not stated for this conjugate, linked to PEG4-MMAE
# B4: Conjugate C: anti-CD74 IgG containing residue 30 conjugated to a val-cit-PAB-hemiasterlin precursor (conjugate)
# VH: B1 VH
# VL: B1 VL
# modifications: non-natural residues
# B5: Conjugate F: anti-CD74 IgG containing residue 30 conjugated to a PEG4-MMAE precursor (conjugate)
# VH: B1 VH
# VL: B1 VL
# How the values were obtained:
# [1] = target: CD74 (human), P04233; experiment: cell-based or functional assay
# [2] = tested on: ARD (MM); experiment: Cell killing assay (cell proliferation, Cell Titer-Glo); format: cell-based, human; conditions: 72 hrs
# Description: (§1) Cytotoxicity effects of the free drug linkers and conjugates were measured with a cell proliferation assay. A total of 12500 cells in a volume of 25 μl were seeded in a 384-well flat bottom white polystyrene plate on the day of assay. Free drug-linkers and conjugates were formulated at 2× starting concentration (1000 nM for free drug linkers and 100 nM for ADCs) in RPMI medium and filtered through MultiScreen HTS 96-Well Filter Plates (Millipore). Filter sterilized samples were serial diluted (1:3) under sterile conditions and added into treatment wells. Plates were cultured at 37° C. in a CO2 incubator for 72 hrs. For cell viability measurement, 30 μl of Cell Titer-Glo® reagent (Promega Corp.) was added into each well, and plates processed as per product instructions. Relative luminescence was measured on an ENVISION® plate reader (Perkin-Elmer; Waltham, Mass.). Relative luminescence readings were converted to % viability using untreated cells as controls. Data was fitted with non-linear regression analysis, using log(inhibitor) vs. response, variable slope, 4 parameter fit equation using GraphPad Prism. Data was expressed as % relative cell viability vs. dose of free drug-linker or conjugate in nM.
# [3] = tested on: ARP-1 (MM); experiment: as above; format: cell-based, human; conditions: 72 hrs
# Description: as §1
# [4] = tested on: SU-DHL-6 (NHL); experiment: as above; format: cell-based, human; conditions: 72 hrs
# Description: as §1
# [5] = tested on: K562 (CML); experiment: as above; format: cell-based; design: key to Cell Killing Activity Span: NK = no killing; NB = no binding; conditions: 72 hrs
# Description: as §1
# [6] = tested on: OPM-2 (MM); experiment: as above; format: cell-based; design: key to Cell Killing Activity Span: NK = no killing; NB = no binding; conditions: 72 hrs
# Description: as §1
# [7] = tested on: RPMI-8226 (MM); experiment: as above; format: cell-based; design: key to Cell Killing Activity Span: NK = no killing; NB = no binding; conditions: 72 hrs
# Description: as §1
# [8] = tested on: BDCM (AML); experiment: as above; format: cell-based; conditions: 72 hrs
# Description: as §1
# [9] = tested on: JVM-13 (CLL); experiment: as above; format: cell-based; conditions: 72 hrs
# Description: as §1
# [10] = tested on: RPMI-6666 (HL); experiment: as above; format: cell-based; conditions: 72 hrs
# Description: as §1
# [11] = tested on: SUP-B15 (ALL); experiment: as above; format: cell-based; conditions: 72 hrs
# Description: as §1
# Chain of CD74 (human), P04233 (P04233 whole entry): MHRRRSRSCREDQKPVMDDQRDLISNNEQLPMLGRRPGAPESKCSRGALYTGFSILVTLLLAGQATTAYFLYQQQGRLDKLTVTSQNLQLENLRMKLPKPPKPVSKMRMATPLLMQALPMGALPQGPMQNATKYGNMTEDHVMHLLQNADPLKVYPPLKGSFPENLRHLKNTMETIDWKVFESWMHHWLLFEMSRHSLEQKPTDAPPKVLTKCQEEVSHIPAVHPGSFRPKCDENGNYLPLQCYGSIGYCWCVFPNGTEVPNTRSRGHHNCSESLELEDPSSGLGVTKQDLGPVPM
Molecule,"cell killing IC50, JVM-13 (CLL) cells [1]","cell killing IC50, RPMI-6666 (HL) cells [1]","cell killing IC50, SU-DHL-6 (NHL) cells [1]","cell killing Span, ARD (MM) cells [1]","cell killing Span, ARP-1 (MM) cells [1]","cell killing Span, BDCM (AML) cells [1]","cell killing Span, JVM-13 (CLL) cells [1]","cell killing Span, RPMI-6666 (HL) cells [1]","cell killing Span, RPMI-8226 (MM) cells [1]","cell killing Span, SU-DHL-6 (NHL) cells [1]","cell killing Span, SUP-B15 (ALL) cells [1]","cell killing IC50, ARD (MM) cells [1]","cell killing IC50, ARP-1 (MM) cells [1]","cell killing IC50, BDCM (AML) cells [1]","cell killing IC50, SUP-B15 (ALL) cells [1]",Cell Killing Activity Span [2],Cell Killing Activity Span [3],Cell Killing Activity Span [4],Cell Killing Activity Span [5],IC50 [5],also measured
B1,0.9 nM,0.9 nM,0.3 nM,74%,87%,89%,54%,84%,43%,97%,68%,–,–,–,–,–,–,–,–,–,–
B2,7.8 nM,1.5 nM,0.5 nM,20%,71%,78%,47%,80%,–,98%,58%,18 nM,6 nM,3.3 nM,2.5 nM,–,–,–,–,–,–
B3,5 nM,0.7 nM,0.3 nM,73%,93%,94%,59%,82%,31%,97%,65%,16 nM,4.2 nM,1.4 nM,3.7 nM,–,–,–,–,–,"cell killing IC50, RPMI-8226 (MM) cells [1]: 20 nM"
B4,–,–,–,–,–,–,–,–,–,–,–,–,–,–,–,74%,87%,97%,NK,> 50 nM,Cell Killing Activity Span [6]: NK; IC50 [6]: > 50 nM; Cell Killing Activity Span [7]: 43%; Cell Killing Activity Span [8]: 89%; Cell Killing Activity Span [9]: 54%; Cell Killing Activity Span [10]: 84%; Cell Killing Activity Span [11]: 68%
B5,–,–,–,–,–,–,–,–,–,–,–,–,–,–,–,73%,93%,97%,NK,> 50 nM,IC50 [2]: 16 nM; IC50 [3]: 4.2 nM; Cell Killing Activity Span [6]: NK; IC50 [6]: > 50 nM; Cell Killing Activity Span [7]: 31%; IC50 [7]: 20 nM; Cell Killing Activity Span [8]: 94%; IC50 [8]: 1.4 nM; Cell Killing Activity Span [9]: 59%; IC50 [9]: 5 nM; Cell Killing Activity Span [10]: 82%; Cell Killing Activity Span [11]: 65%; IC50 [11]: 3.7 nM
